US20130288266A1 (ROCHE DIAGNOSTICS OPERATIONS, published 2013)
Values joined by “and” are separate entries in the source; they are usually repeats but may differ in a detail not shown here. Equal entries are not always repeated. Values belong to the binder of their own block, whether it stands above or below them.

Legend:
[1] = target: T1, mutated HER3(Y>F) in NRG1-beta1-stimulated Hek293 cells, 14 tyrosines of the intracellular domain replaced … (UniProt P21860 20-1342, limits assumed); assay: IHC (Ventana BenchMark XT), FFPE Hek293 cells
T1 construct: whole, on cells; also called mutated version of HER3 lacking the Tyr1289 phosphorylation site
Method: The IHC experiments were performed on the BenchMark XT platform from Ventana. For the assay an anti-pHER3 dual binder was used that consisted of ssFab 7.2.32 (binding a non-phospho epitope of the intracellular domain of HER3), ssFab 4.1.15 (binding the pTyr1289 phospho-epitope of the intracellular domain of HER3) and a flexible linker. […] A biotin label within the linker molecule served as a detection tag for the streptavidin-based Ventana iVIEW DAB detection kit.
In order to test the specificity of the anti-pHER3 dual binder molecule an elaborate test system based on formalin-fixed paraffin-embedded (FFPE) Hek293 cells was used. Hek293 cells had been transiently transfected with both HER2 and HER3 expression vectors. In one case an HER3 expression vector was used that encodes an mutated version of HER3, in which 14 tyrosines of the intracellular domain that serve as phosphorylation sites are replaced with phenylalanines (Y975F, Y1054F, Y1132F, Y1159F, Y1197F, Y1199F, Y1222F, Y1224F, Y1260F, Y1262F, Y1276F, Y1289F, Y1307F, Y1328F). Cells were fixed with formalin and embedded in paraffin according to standard protocols. […]

[2] = target: T1, mutated HER3(Y>F) in …; assay: IHC (Ventana BenchMark XT), ssFab on 4xC18 linker, FFPE Hek293 cells
From the text: (§1) Hek293 cells had been transiently transfected with both HER2 and HER3 expression vectors. In one case an HER3 expression vector was used that encodes an mutated version of HER3, in which 14 tyrosines of the intracellular domain that serve as phosphorylation sites are replaced with phenylalanines (Y975F, Y1054F, Y1132F, Y1159F, Y1197F, Y1199F, Y1222F, Y1224F, Y1260F, Y1262F, Y1276F, Y1289F, Y1307F, Y1328F). Cells were fixed with formalin and embedded in paraffin according to standard protocols.
(§2) 1 μg/ml per ssFab fragment of only ssFab 7.2.32 or only ssFab 4.1.15, respectively, and an equimolar amount of 4×C18 linker, as well as a mixture of both ssFab′ fragments of ssFab 7.2.32 and ssFab 4.1.15 (both at 1 μg/ml) and an equimolar amount of 4×C18 linker, respectively, were used for detection. A biotin label within the linker molecule served as a detection tag for the streptavidin-based Ventana iVIEW DAB detection kit.

[3] = target: T2, wild-type HER3 in unstimulated Hek293 cells (transfected with HER2 and HER3) (UniProt P21860 20-1342, limits assumed); assay: as above
T2 construct: whole, on cells; also called HER3 (unstimulated cells)
From the text: as §1, §2

[4] = target: T3, IGF-1R(1340-1366)[1346-pTyr]amid, phosphorylated IGF-1R peptide (phosphotyrosine at 1346 (IGF-1R numbering); C-terminal amide; in Examples 2.6 and 2.7 a biotinylated PEG-linker bound via glutamic acid at position 1340); assay: SPR (Biacore 3000, 25 C), ssFab's on biotinylated 8xC18 linker on SA chip, pIGF-1R peptide injected
T3 construct: also called pIGF-1R peptide; pIGF-1R
T3 peptide: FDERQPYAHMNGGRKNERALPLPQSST
Method: (§3) The system was regenerated after each concentration step with a 12 sec pulse of 250 mM NaOH and was reloaded with ssFab ligand.

[5] = target: T3, IGF-1R(1340-1366)[1346-pTyr]amid, …; assay: SPR (Biacore 3000, 25 C)
[6] = target: T4, phosphorylated IR in IR overexpressing 3T3 cells stimulated with Insulin (UniProt P06213 28-1382, limits assumed, phosphorylated after stimulation with 100 ng/ml Insulin); assay: IHC (Ventana BenchMark XT), FFPE 3T3 cells
T4 construct: whole, on cells; also called pIR (cells)
Method: (§4) In order to test the specificity of the anti-pIGF-1R dual binder molecule an elaborate test system based on formalin-fixed paraffin-embedded (FFPE) 3T3 cells was used. 3T3 cells had been stably transfected with either IGF-1R or IR expression vectors. Cells were fixed with formalin and embedded in paraffin according to standard protocols. Prior to fixation cells were stimulated with 100 ng/ml of either IGF-1 or Insulin to induce IGF1-R or IR phosphorylation or were left untreated.
(§5) A biotin label within the linker molecule served as a detection tag for the streptavidin-based Ventana iVIEW DAB detection kit.

[7] = target: T5, IR (insulin receptor) in untreated IR overexpressing 3T3 cells (UniProt P06213 28-1382, limits assumed); assay: IHC (Ventana BenchMark XT), FFPE 3T3 cells
T5 construct: whole, on cells; also called IR (unstimulated)
Method: as §4, §5

[8] = target: T3, IGF-1R(1340-1366)[1346-pTyr]amid, …; assay: SPR (Biacore 3000, SA sensor, 25 C): both ssFab' hybridized on the immobilized biotinylated 8xC18 linker, pIGF-1R peptide injected as analyte
Method: 89 RU amino-PEO-biotin were captured on the reference flow cell 1.
as §3

T1 sequence (P21860 other isoform, or with tags, fused parts or gaps limits assumed, change not shown): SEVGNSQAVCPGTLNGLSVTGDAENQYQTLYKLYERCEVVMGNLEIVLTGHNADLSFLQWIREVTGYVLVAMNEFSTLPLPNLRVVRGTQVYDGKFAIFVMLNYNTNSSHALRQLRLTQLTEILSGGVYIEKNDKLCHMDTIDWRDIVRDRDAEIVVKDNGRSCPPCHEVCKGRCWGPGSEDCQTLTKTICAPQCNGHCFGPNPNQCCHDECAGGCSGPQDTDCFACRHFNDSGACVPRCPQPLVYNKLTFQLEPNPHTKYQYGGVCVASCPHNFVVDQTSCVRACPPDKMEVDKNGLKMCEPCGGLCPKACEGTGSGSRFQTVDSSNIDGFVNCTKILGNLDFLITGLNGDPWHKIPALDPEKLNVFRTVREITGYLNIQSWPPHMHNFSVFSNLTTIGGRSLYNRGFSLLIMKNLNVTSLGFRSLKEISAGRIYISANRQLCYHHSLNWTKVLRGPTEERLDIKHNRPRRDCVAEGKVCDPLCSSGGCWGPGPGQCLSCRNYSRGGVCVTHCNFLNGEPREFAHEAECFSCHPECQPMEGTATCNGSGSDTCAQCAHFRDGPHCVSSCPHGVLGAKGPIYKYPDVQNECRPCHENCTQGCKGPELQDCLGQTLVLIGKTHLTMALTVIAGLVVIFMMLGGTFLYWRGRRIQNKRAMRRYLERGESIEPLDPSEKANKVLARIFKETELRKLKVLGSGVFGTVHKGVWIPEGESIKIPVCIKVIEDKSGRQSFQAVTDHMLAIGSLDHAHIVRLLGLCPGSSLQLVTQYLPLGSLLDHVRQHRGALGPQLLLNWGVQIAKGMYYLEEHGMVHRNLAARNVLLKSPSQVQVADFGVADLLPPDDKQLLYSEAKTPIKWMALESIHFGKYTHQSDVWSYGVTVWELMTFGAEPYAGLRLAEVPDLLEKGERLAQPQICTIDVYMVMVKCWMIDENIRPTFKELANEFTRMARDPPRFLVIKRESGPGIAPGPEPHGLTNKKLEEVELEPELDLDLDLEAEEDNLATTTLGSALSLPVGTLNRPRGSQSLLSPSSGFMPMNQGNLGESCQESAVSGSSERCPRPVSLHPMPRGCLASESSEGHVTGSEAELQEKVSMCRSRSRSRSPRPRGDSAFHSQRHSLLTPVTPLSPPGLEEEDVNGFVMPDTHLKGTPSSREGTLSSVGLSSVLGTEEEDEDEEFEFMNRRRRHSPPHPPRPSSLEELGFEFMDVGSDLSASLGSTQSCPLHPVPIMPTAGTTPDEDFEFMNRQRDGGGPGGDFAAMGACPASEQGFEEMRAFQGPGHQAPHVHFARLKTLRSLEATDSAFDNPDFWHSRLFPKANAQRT
T2 sequence (P21860 20-1342 limits assumed): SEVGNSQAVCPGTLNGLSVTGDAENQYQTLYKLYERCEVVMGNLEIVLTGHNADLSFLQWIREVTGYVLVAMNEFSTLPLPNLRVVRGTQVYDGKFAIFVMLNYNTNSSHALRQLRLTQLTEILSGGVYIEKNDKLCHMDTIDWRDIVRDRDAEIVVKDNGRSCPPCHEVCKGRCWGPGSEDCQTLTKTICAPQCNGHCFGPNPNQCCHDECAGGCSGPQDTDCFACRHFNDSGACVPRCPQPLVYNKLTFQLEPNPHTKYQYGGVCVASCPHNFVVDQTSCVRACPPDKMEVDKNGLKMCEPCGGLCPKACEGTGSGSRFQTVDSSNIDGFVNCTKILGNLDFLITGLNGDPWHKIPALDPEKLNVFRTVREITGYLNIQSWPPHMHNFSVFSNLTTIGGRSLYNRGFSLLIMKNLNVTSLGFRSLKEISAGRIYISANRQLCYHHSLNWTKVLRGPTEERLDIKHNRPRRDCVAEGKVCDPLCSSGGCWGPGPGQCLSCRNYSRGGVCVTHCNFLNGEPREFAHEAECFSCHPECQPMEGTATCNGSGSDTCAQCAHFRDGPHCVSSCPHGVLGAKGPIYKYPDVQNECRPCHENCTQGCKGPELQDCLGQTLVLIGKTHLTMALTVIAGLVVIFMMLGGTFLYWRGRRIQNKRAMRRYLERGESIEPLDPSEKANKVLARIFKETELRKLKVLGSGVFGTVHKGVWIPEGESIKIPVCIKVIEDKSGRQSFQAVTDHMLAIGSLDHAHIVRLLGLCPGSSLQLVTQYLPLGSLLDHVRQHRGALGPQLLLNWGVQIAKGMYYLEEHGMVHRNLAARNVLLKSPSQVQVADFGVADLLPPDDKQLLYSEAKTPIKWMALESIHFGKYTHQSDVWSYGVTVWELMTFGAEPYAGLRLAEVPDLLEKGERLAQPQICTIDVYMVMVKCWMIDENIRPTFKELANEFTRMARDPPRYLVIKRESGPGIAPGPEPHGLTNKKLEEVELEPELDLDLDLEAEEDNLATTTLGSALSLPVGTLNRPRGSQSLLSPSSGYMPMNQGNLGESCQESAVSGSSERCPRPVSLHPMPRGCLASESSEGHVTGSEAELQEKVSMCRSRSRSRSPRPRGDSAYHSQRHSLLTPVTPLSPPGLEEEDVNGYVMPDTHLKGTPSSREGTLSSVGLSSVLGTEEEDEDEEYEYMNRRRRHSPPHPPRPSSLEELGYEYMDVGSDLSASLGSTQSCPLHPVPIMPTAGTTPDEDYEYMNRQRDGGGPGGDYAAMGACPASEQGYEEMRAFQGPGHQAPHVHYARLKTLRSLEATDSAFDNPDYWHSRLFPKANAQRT
T5 sequence (P06213 28-1382 limits assumed): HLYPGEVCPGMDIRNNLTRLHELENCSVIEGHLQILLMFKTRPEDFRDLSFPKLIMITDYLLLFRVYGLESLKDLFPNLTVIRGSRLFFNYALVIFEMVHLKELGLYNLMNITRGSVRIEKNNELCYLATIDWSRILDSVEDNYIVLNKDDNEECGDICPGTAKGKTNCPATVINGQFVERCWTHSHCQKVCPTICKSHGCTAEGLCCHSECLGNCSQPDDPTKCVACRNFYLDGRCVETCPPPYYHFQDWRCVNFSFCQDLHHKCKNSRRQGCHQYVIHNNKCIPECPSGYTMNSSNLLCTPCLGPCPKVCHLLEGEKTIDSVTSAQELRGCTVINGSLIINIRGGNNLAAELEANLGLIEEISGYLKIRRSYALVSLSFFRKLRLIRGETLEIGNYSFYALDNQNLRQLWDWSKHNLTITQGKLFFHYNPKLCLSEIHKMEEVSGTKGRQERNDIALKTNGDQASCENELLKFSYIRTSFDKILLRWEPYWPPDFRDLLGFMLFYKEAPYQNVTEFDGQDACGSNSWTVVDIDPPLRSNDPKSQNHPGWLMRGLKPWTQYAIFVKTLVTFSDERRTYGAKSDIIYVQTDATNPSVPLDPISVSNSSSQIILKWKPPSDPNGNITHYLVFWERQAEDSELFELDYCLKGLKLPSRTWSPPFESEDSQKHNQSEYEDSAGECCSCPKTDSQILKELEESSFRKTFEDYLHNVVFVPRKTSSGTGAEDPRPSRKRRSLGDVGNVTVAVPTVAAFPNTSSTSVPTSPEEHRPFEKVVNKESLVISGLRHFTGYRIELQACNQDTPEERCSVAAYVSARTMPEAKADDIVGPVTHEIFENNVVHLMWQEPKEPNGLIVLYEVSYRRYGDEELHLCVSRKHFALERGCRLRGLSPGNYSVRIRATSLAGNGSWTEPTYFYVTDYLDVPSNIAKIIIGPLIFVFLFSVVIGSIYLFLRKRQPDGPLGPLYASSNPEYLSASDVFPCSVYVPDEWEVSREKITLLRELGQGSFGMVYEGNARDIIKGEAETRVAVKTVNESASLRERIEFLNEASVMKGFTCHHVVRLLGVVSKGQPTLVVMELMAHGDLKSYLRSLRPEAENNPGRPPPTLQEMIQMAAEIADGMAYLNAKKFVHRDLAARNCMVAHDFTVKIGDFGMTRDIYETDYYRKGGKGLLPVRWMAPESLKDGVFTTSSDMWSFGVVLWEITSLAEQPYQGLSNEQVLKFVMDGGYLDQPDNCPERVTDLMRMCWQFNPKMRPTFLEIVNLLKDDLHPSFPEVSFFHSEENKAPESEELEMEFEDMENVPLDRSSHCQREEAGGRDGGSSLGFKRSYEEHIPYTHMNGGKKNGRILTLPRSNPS
T4 sequence (P06213 28-1382 limits assumed): as above

binding result [1]: no binding (tested: 1 µg/ml per ssFab)
B1: anti-pHER3 dual binder consisting of ssFab 7.2.32, ssFab 4.1.15 and a flexible linker with a 4xC18 spacer (linker 12 of example 2.4) (bispecific antibody, V domains shown)
VH 1: EFEVQLQESGGGLVQPKGSLQLSCAASGFTFNTYAMHWVRQAPGKGLEWVARIRTESSDYATDYADSVKDRFIISRDDSQNMLYLQMNNLKSEDTAIYYCVRSSGFDYWGQGTTLTVSSS
VL 1: DIQMTQSPSLPVSLGDQASISCRSSQSLVHDNGNTYLHWFLQKPGQSPKLLIYKVSNRFSGVPDRFGGSGSGTDFTLKISGVEAEDLGVYFCSQGTHVPTFGGGTKLEIK
VH 2: EFEVQLQESGPELVKPGTSVTISCKTSGYAFSNSWMSWVKQRPGQGLEWIGRIFPGNGDTDYNGNFRAKATLTADKSSSTAFMQLSRLTSVDSAVYFCARSRGLRQGAGFAYWGQGTLVTVSA
VL 2: not shown
notes: Two recombinant Fab-oligo conjugates hybridised on biotinylated linker 12 ((Spacer C18)2-(Biotin-dT)-(Spacer C18)2)

binding result [2]: no binding (tested: 1 µg/ml)
binding result [3]: no binding (tested: 1 µg/ml)
B2: ssFab 4.1.15 (recombinant Fab 4.1.15 conjugated to the 17 mer oligo by sortase) (Fab, V domains shown)
VH: EVQLQESGPELVKPGTSVTISCKTSGYAFSNSWMSWVKQRPGQGLEWIGRIFPGNGDTDYNGNFRAKATLTADKSSSTAFMQLSRLTSVDSAVYFCARSRGLRQGAGFAYWGQGTLVTVSA
VL: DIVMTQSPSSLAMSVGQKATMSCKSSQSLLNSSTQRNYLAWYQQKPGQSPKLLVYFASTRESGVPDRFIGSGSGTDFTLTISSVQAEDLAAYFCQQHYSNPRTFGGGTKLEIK
notes: also called Fab-Oligo 4.1.15

Kd [4]: ~0.01 nM
koff [4]: 1.39e-05 s⁻¹
fold affinity improvement compared to ssFab' 1.4.168 alone [5]: 300 fold
fold affinity improvement compared to ssFab' 30.4.33 alone [5]: 200 fold
fold lower off-rate than ssFab' 1.4.168 [5]: 230 fold
fold lower off-rate than ssFab' 30.4.33 [5]: 110 fold
Kd [8]: 0.0112 nM and 0.011 nM
kon [8]: 1.24e+06 M⁻¹ s⁻¹
B3: anti-pIGF-1R dual binder composed of ssFab' 1.4.168, ssFab' 30.4.33 and an 8xC18 linker molecule (linker 14 of example 2.4) (bispecific antibody, V domains shown)
VH 1: EVQLQESGPEVAKPGASVKMSCKASGYTFTDYIIHWVKQRPGQDLEWIGYINPYNDKSKYNEKFKDKATLTSDRSSSTSYMDLSTLTSDDSAVYYCTRHGYYRSDGFDYWGQGTTLTVSS
VL 1: DIVLTQSPTIMSASPGEKVTMTCRASSSVSSSSLHWYQQKPGSSPKLWIYSTSTLASGVPARFSGSGSGTSYSLTISGVETEDAATYYCQQYGTSPYTFGSGTKVDIK
VH 2: QCDVKLVESGGGLVKPGGSLKLSCAASGFTFSDYPMSWVRQTPEKRLEWVATITTGGTYTYYPDSIKGRFTISRDNAKNTLYLQMGSLQSEDAAMYYCTRVKTDLWWGLAYWGQGTLVTVSA
VL 2: QLVLTQSSSASFSLGASAKLTCTLSSQHSTYTIEWYQQQPLKPPKYVMELKKDGSHTTGDGIPDRFSGSSSGADRYLSISNIQPEDESIYICGVGDTIKEQFVYVFGGGTKVTVLG
modifications: 17 mer ssDNA (SEQ ID NO:6) on hinge cysteine; ssDNA oligonucleotide on the Fab' hinge region
notes: Two Fab'-ssDNA conjugates hybridised on biotinylated linker 14 ((Spacer C18)4-(Biotin-dT)-(Spacer C18)4)
binding result [6]: no binding (tested: 0.5 µg/ml per ssFab')
binding result [7]: no binding (tested: 0.5 µg/ml per ssFab')
